Measured values taken from PMC12618267, “GAGA zinc finger transcription factor searches chromatin by 1D–3D facilitated diffusion”.
Each block holds one molecule with its values, some of them ahead of it.

Tests used:
[1] = tested on: T1, HA-GAF-FL (Drosophila melanogaster), Q08605-2; assay: EMSA; details: ~15 nM protein, 3 nM NCP; 12.5 mM HEPES-KOH pH 7.6, 0.05 mM EDTA, 6.25 mM MgCl2, 5% glycerol, 50 mM NaCl, 50 ug/ml BSA, 0.05% NP-40; EMSA at room temperature; smFRET adds dextrose …
T1 sequence: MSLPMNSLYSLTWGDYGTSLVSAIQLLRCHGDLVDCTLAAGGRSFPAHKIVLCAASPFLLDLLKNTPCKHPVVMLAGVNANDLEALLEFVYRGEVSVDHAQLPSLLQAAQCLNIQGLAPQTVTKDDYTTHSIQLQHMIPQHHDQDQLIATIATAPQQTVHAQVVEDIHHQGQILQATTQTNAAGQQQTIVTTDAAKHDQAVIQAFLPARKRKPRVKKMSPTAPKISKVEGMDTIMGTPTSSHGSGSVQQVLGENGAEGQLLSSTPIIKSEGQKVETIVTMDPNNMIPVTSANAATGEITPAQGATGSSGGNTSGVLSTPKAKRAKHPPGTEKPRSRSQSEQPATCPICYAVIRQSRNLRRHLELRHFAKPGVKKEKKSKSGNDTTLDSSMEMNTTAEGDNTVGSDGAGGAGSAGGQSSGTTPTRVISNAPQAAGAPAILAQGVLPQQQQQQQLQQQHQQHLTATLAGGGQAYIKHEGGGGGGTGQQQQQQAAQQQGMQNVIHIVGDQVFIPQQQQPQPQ

[2] = tested on: T2, Cy3-GAF-DBD / GAF-DBD (Drosophila melanogaster), Q08605-2; assay: EMSA; details: 3 nM DNA; 12.5 mM HEPES-KOH pH 7.6, 0.05 mM EDTA, 6.25 mM MgCl2, 5% glycerol, 50 mM NaCl, 50 ug/ml BSA, 0.05% NP-40; EMSA at room temperature; smFRET adds dextrose …
T2 sequence: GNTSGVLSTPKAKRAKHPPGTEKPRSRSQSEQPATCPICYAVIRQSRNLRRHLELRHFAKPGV

[3] = tested on: T2, Cy3-GAF-DBD / GAF-DBD (Drosophila melanogaster), Q08605-2; assay: smFRET; details: from koff/kon; dwell 3.1 s; 6.25 mM Mg2+; 12.5 mM HEPES-KOH pH 7.6, 0.05 mM EDTA, 6.25 mM MgCl2, 5% glycerol, 50 mM NaCl, 50 ug/ml BSA, 0.05% NP-40; EMSA at room temperature; smFRET adds dextrose …
[4] = molecular target: SNAP-tagged full-length GAGA factor (MBP–SNAP–GAF–6×His) (Drosophila melanogaster); assay: mass photometry; Refeyn TwoMP; proteins free in solution; optical tweezers imaging buffer without NP-40; 10-min incubation before measuring; at concentrations similar to those of the optical tweezers experiments (80 nM GAF-FL, 25 nM GAF-ΔPOZ)
[5] = molecular target: T3, HA-GAF-FL (Drosophila melanogaster, UniProt Q08605-2 1-519); assay: EMSA; 3 nM DNA; 12.5 mM HEPES-KOH pH 7.6, 0.05 mM EDTA, 6.25 mM MgCl2, 5% glycerol, 50 mM NaCl, 50 ug/ml BSA, 0.05% NP-40; EMSA at room temperature; smFRET adds dextrose, Trolox, glucose oxidase, catalase; details: protein: recombinant; tags: N-terminal HA; chain copies: 6; label: Cy5 at end
T3 sequence: T1 sequence

Molecule: GTGTCATTTGTTTGGCAGAAAGAAAACTCGAGAAATTTCTCTGGCCGTTATTCTCTATTCGTTTTGTGACTCTCCCTCTCTGTACTATTGCTCTCTCACTCTGTCGCACAGTAAACGGCACACTGTTCTCGTTGCTTCGAGAGAGCGCGCCTCGAA (double strand) [hsp70 NCP (3-N-6 nucleosome)]
binding signal (fold less bound than free DNA) [1]: 2

Molecule: GTGTCATTTGTTTGGCAGAAAGAAAACTCGAGAAATTTCTCTGGCCGTTATTCTCTATTCGTTTTGTGACTCTCCCTCTCTGTACTATTGCTCTCTCACTCTGTCGCACAGTAAACGGCACACTGTTCTCGTTGCTTCGAGAGAGCGCGCCTCGAA (double strand) [hsp70 NCP DNA (free, 3-N-6)]
K half [2]: 12 nM

Molecule: GTTTTGTGAGTACGCGCTGTTGTACTATTGTTAACCCACAAGGTCGCACAGTAAACGGCACACTGTACGTGTTGCTTCGAGAGAGCGCGC (double strand) [Cy5-cognate DNA 90 bp]
Kd [3]: 11.5 nM

stoichiometry N [4]: 8
Molecule: SNAP-tagged full-length GAGA factor (MBP–SNAP–GAF–6×His) (natural protein)

B1: hsp70 NCP DNA (free, 3-N-6) (dsDNA)
DNA 1: GTGTCATTTGTTTGGCAGAAAGAAAACTCGAGAAATTTCTCTGGCCGTTATTCTCTATTCGTTTTGTGACTCTCCCTCTCTGTACTATTGCTCTCTCACTCTGTCGCACAGTAAACGGCACACTGTTCTCGTTGCTTCGAGAGAGCGCGCCTCGAA
DNA 2: TTCGAGGCGCGCTCTCTCGAAGCAACGAGAACAGTGTGCCGTTTACTGTGCGACAGAGTGAGAGAGCAATAGTACAGAGAGGGAGAGTCACAAAACGAATAGAGAATAACGGCCAGAGAAATTTCTCGAGTTTTCTTTCTGCCAAACAAATGACAC
binding result [5]: binds
